Reference: patent US10400249B2, “HPPD variants and methods of use” (priority 2014, dated 2019)

Tests used:
[1] = tested on: Pseudomonas fluorescens HPPD protein; assay: HGD assay: HPPD activity coupled to HGA dioxygenase, pI50 and type of inhibition (time-course); assay type: biochemical; conditions: for pI50-values of Cmpd. 2: assay not given, follows the time-course analysis (HGD assay); for tolerance (pI50) DKN: inhibitor diketonitrile (DKN); for tolerance (pI50) MST: inhibitor mesotrione (MST); for tolerance (pI50) TBT: inhibitor tembotrione (TBT)
Experimental: (§1) HPPD proteins were produced and purified as described in WO2011/076882. The activity of HPPD proteins in absence or presence of HPPD inhibitors was determined using either the so called OD assay or the HGD assay.
(§2) • a) The OD assay: The HPPD activity was determined colourimetrically by measuring the amount of HPP remaining in the assay mixture at the end of the incubation period after derivatisation of HPP with 2,4-dinitrophenylhydrazine (DNP) to form an amber-brown colored 2,4-dinitrophenylhydrazone under alkaline conditions. The assay was carried out at room temperature in Greiner F-bottom 96 well microplates. The assay mixture contained 50 mM Tris-HCl pH 7.8, 0.5 mM HPP, 10 mM ascorbate, 650 units of catalase and appropriate amounts of purified HPPD enzyme in a total assay volume of 100 μl. The reaction was started by the addition of enzyme. After an incubation time of 24 minutes, the reaction was stopped by the addition of 50 μl of a solution of 0.04% DNP dissolved in 3.8 N HCl. After a further 15-minute incubation period 100 μl of a 5 N KOH solution was added to the reaction mixture and the amount of unconsumed HPP was measured photometrically at 405 nm. Enzyme activity was calculated as the difference in E405 between assays lacking enzyme (negative control) and the enzyme containing assays (ΔE405=E405(negative control)−E405). Enzyme activity (nmol substrate consumed per min) was calculated from a calibration curve generated from HPP. pI50-values (the negative log value of the concentration of inhibitor necessary to inhibit 50% of the enzyme activity in molar concentration were determined from dose-response plots of HPPD activity versus inhibitor concentration tested (5.0×10^−6, 1.0×10^−5, 2.5×10^−5, 4.0×10^−5, 7.0×10^−5, 1.0×10^−4, 2.0×10^−4 and 5.0×10^−4M) using the 4 Parameter Logistic Model or Sigmoidal Dose-Response Model of the ID Business Solutions Ltd. XLfit software suite. The result “>5.6” means that the inhibition at the lowest inhibitor concentration tested was higher than 85% and the pI50-value could therefore not be precisely calculated within in the range of concentration of inhibitor tested. The result “<2.5” means that the inhibition at the highest inhibitor concentration tested was lower than 25% and the pI50-value could therefore not be precisely calculated within in the range of concentration of inhibitor tested. “n.d.” means not determined. • b) The HGD assay: With the HGD assay HPPD activity was measured at room temperature by adding appropriate amounts of HPPD to a solution of 200 mM Tris-HCl pH 7.6, 10 mM ascorbate, 20 μM FeSO4, 650 units of catalase, 8 μg HGA dioxygenase (HGA: homogentisate) and 600 μM HPP in a total volume of 1 ml. Initial reaction rates in the absence or presence of inhibitors were determined from the increase in absorbance at 318 nm due to the formation of maleylacetoacetate (ε318=11,900 M−1 cm-1). pI50-values (the negative log value of the concentration of inhibitor necessary to inhibit 50% of the enzyme activity in molar concentration were determined from dose-response plots of HPPD activity versus inhibitor concentration tested using the 4 Parameter Logistic Model or Sigmoidal Dose-Response Model of the ID Business Solutions Ltd. XLfit software suite. Due to the UV absorption of the HPPD inhibitors tested, inhibitor concentrations >100 μM could not be tested. The result “<4” means that the inhibition at 100 μM inhibitor concentration was lower than 25% and the pI50-value could therefore not be precisely calculated within in the range of concentration of inhibitor tested. “n.d.” means not determined. The HGD assay allowed to continuously follow HPPD-catalyzed HGA formation over time was therefore used to determine the inhibition type of the HPPD inhibitors tested. […] When in the presence of an inhibitor the HPPD activity was inhibited but the inhibition was found not to […] in a time-dependent manner, the inhibitor was called reversible (abbreviation “rev”). […]

[2] = tested on: Pseudomonas fluorescens HPPD protein; assay: OD assay: HPPD activity and pI50 from HPP remaining after derivatisation with DNP; assay type: biochemical; conditions: for Activity DeltaE/24 min μg Protein: HPPD enzyme activity of the clone; for tolerance (pI50) Cmpd. 2: inhibitor Cmpd. 2; for tolerance (pI50) DKN: inhibitor diketonitrile (DKN), negative log of molar concentration; for tolerance (pI50) MST: inhibitor mesotrione (MST); for tolerance (pI50) TBT: inhibitor tembotrione (TBT)
Experimental: as §1, §2

Molecule	mechanism of inhibition by Cmpd. 2, time-course of inhibition [1]	pI50-values of Cmpd. 2 [1]	Activity DeltaE/24 min μg Protein [2] [DeltaE/24 min μg Protein]	tolerance (pI50) Cmpd. 2 [2]	tolerance (pI50) DKN [2]	tolerance (pI50) MST [2]	tolerance (pI50) TBT [2]	tolerance (pI50) DKN ([1]; HGD assay)	tolerance (pI50) MST ([1]; HGD assay)	tolerance (pI50) TBT ([1]; HGD assay)	tolerance (pI50) Cmpd. 1 ([1]; inhibitor Cmpd. 1, HGD assay)	tolerance (pI50) Cmpd. 2 ([1]; inhibitor Cmpd. 2, HGD assay)	tolerance (pI50) Cmpd. 3 ([1]; inhibitor Cmpd. 3, HGD assay)	tolerance (pI50) Cmpd. 4 ([1]; inhibitor Cmpd. 4, HGD assay)	tolerance (pI50) Cmpd. 5 ([1]; inhibitor Cmpd. 5, HGD assay)
K360: PfHPPD variant L200I, E335P, G336F, A340E (protein, HPPD variant - K360, PfHPPD variant L200I, E335P, G336F, A340E) MADLYENPMGLMGFEFIEFASPTPGTLEPIFEIMGFTKVATHRSKNVHLYRQGEINLILNNEPNSIASYFAAEHGPSVCGMAFRVKDSQKAYNRALELGAQPIHIDTGPMELNLPAIKGIGGAPLYLIDRFGEGSSIYDIDFVYLEGVERNPVGAGLKVIDHLTHNVYRGRMVYWANFYEKLFNFREARYFDIKGEYTGITSKAMSAPDGMIRIPLNEESSKGAGQIEEFLMQFNGEGIQHVAFLTDDLVKTWDALKKIGMRFMTAPPDTYYEMLEGRLPDHGEPVDQLQARGILLDGSSVEGDKRLLLQIFSETLMGPVFFEFIQRKGDDGFGPFNFKELFESIERDQVRRGVLTAD	fully reversible inhibitor	5.5	0.28	5.3	3.6	4.3	5.3								
PfEvo33: reference PfHPPD mutant E335P, G336W (protein, HPPD variant - PfEvo33) MADLYENPMGLMGFEFIEFASPTPGTLEPIFEIMGFTKVATHRSKNVHLYRQGEINLILNNEPNSIASYFAAEHGPSVCGMAFRVKDSQKAYNRALELGAQPIHIDTGPMELNLPAIKGIGGAPLYLIDRFGEGSSIYDIDFVYLEGVERNPVGAGLKVIDHLTHNVYRGRMVYWANFYEKLFNFREARYFDIKGEYTGLTSKAMSAPDGMIRIPLNEESSKGAGQIEEFLMQFNGEGIQHVAFLTDDLVKTWDALKKIGMRFMTAPPDTYYEMLEGRLPDHGEPVDQLQARGILLDGSSVEGDKRLLLQIFSETLMGPVFFEFIQRKGDDGFGPWNFKALFESIERDQVRRGVLTAD			0.25		4.3	5.1		4.6	5.5	6.2					
K361: PfHPPD variant L200M, E335P, G336F, A340E (protein, HPPD variant - K361, PfHPPD variant L200M, E335P, G336F, A340E) MADLYENPMGLMGFEFIEFASPTPGTLEPIFEIMGFTKVATHRSKNVHLYRQGEINLILNNEPNSIASYFAAEHGPSVCGMAFRVKDSQKAYNRALELGAQPIHIDTGPMELNLPAIKGIGGAPLYLIDRFGEGSSIYDIDFVYLEGVERNPVGAGLKVIDHLTHNVYRGRMVYWANFYEKLFNFREARYFDIKGEYTGMTSKAMSAPDGMIRIPLNEESSKGAGQIEEFLMQFNGEGIQHVAFLTDDLVKTWDALKKIGMRFMTAPPDTYYEMLEGRLPDHGEPVDQLQARGILLDGSSVEGDKRLLLQIFSETLMGPVFFEFIQRKGDDGFGPFNFKELFESIERDQVRRGVLTAD	fully reversible inhibitor	5.3	0.21	5.2	3.4	4.0	5.1								
PfG336F: reference PfHPPD mutant G336F (protein, HPPD variant - Pf336F) MADLYENPMGLMGFEFIEFASPTPGTLEPIFEIMGFTKVATHRSKNVHLYRQGEINLILNNEPNSIASYFAAEHGPSVCGMAFRVKDSQKAYNRALELGAQPIHIDTGPMELNLPAIKGIGGAPLYLIDRFGEGSSIYDIDFVYLEGVERNPVGAGLKVIDHLTHNVYRGRMVYWANFYEKLFNFREARYFDIKGEYTGLTSKAMSAPDGMIRIPLNEESSKGAGQIEEFLMQFNGEGIQHVAFLTDDLVKTWDALKKIGMRFMTAPPDTYYEMLEGRLPDHGEPVDQLQARGILLDGSSVEGDKRLLLQIFSETLMGPVFFEFIQRKGDDGFGEFNFKALFESIERDQVRRGVLTAD			0.66		5.3	5.6		5.1	5.1	5.9					
PfG336Y: reference PfHPPD mutant G336Y (protein, HPPD variant - Pf336Y) MADLYENPMGLMGFEFIEFASPTPGTLEPIFEIMGFTKVATHRSKNVHLYRQGEINLILNNEPNSIASYFAAEHGPSVCGMAFRVKDSQKAYNRALELGAQPIHIDTGPMELNLPAIKGIGGAPLYLIDRFGEGSSIYDIDFVYLEGVERNPVGAGLKVIDHLTHNVYRGRMVYWANFYEKLFNFREARYFDIKGEYTGLTSKAMSAPDGMIRIPLNEESSKGAGQIEEFLMQFNGEGIQHVAFLTDDLVKTWDALKKIGMRFMTAPPDTYYEMLEGRLPDHGEPVDQLQARGILLDGSSVEGDKRLLLQIFSETLMGPVFFEFIQRKGDDGFGEYNFKALFESIERDQVRRGVLTAD			0.66		5.2	5.5		4.9	5.0						
PfG336W: reference PfHPPD mutant G336W (protein, HPPD variant - Pf336W) MADLYENPMGLMGFEFIEFASPTPGTLEPIFEIMGFTKVATHRSKNVHLYRQGEINLILNNEPNSIASYFAAEHGPSVCGMAFRVKDSQKAYNRALELGAQPIHIDTGPMELNLPAIKGIGGAPLYLIDRFGEGSSIYDIDFVYLEGVERNPVGAGLKVIDHLTHNVYRGRMVYWANFYEKLFNFREARYFDIKGEYTGLTSKAMSAPDGMIRIPLNEESSKGAGQIEEFLMQFNGEGIQHVAFLTDDLVKTWDALKKIGMRFMTAPPDTYYEMLEGRLPDHGEPVDQLQARGILLDGSSVEGDKRLLLQIFSETLMGPVFFEFIQRKGDDGFGEWNFKALFESIERDQVRRGVLTAD			0.40		5.0	5.3			5.5	6.1	6.2	6.8	6.4	6.7	6.1
